Test results published in the nanobody polyreactivity screen of Harvey et al. (2022).

Assay: yeast display, Sf9 membrane polyspecificity reagent, FACS + sequencing; frameworks hold sequencing errors
Summary of the method: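 Using colony PCR, genes from sorted yeast display clones were amplified, then sequenced on MiSeq at 2 × 250 and filtered by CDR length. The clones had been stained with 10% biotinylated, detergent-solubilized Sf9 membrane reagent for 1 hour at 4 °C and sorted by FACS into low and high (top ~1%) gates on anti-HA and streptavidin fluorescence. Polyreactivity labels come from the gate of origin.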

Sequence | polyreactivity (PSR sort gate)
QVQLVESGGGVVQAGGSLRLSCAASGRIFHDYAMGWYRQAPGKERELVAGMTSGVRTYYADSVKGRFTISRDNEKNTVYLQMNSLKPEDTAVYYCARRLSPLYDYDYWGQGTQVTVSP | low polyreactivity
QVQLVESGGGLVQAAGSLRLSCAASGRTFKYNAMGWYRQAPGKERELVAAITRSGTTYYADSVKGRFTISRDNAKNTVYLQMNSLKPEDTAVYYCNARIVNYGSYYYWGQGTQVTVSS | high polyreactivity
QGQLVESGGGLVQAGGSLRLSCAASGRIFPAYGMAWYRQAPGQERELVATIDNGGGTYYADSVKGRFTISRDNAKNTVYLQMNSLKPEDTAVYYCARDRHVRWGLKMDFWGQGTQVTVSS | low polyreactivity
QVQLVESGVCLDQAGGSLRLSCAASGRTFDYNAMGWYSQAPGKERELVAAIDSDGSTNYADSVKGRFTISRDNAKNTVYLQMNSLKPEDTAVYYCAASTLVVWKPGWQVEYGYWGQGTQVTVSS | low polyreactivity
QVQLVESGGGLVQAGGSLRLSCAASGFTFGAYAMGWYRQAPGKERELVAAITGSGGNTFYADSVKGRFTISRDNAKNSVYLEMNCLKTEDTAVYYCAKTWYPWSRYGYYRRYDSWGQGTQVTVSS | low polyreactivity
QVQLVESGGGLFQAGGSLRLSCAASGSIFDVNVMGWYRQAPGKERELVASINISGASTYYADSVTGRFTISRDNAKNTVYLQMNSLKPEDTAVYYCAVTYGVPSFRYGYWGQVTQVTVSS | low polyreactivity
QVQLVESGGGLVQAGGSLSLSCAASGFIFGAYAMGWYRQAPRKERELVADITQNSGSTYYADSVKGRFTISRDNAKYTVYLQMNSVKPEVTAVYFCNADWETADDYWGQGTQVTVSS | low polyreactivity
QVQLVESGGRLVQAGGSLRLSCPASGSTFGVYAMGWYRPEPGKEREFVAAINYSGRTYYADSVKGLFTISRDNAKITVYLQMNSLKPEDTAVYYCNADFFYRYYGAYDYWGQGNQVTVSS | high polyreactivity
QVQLVESGGRLVQAGGSLRLSCAASGRTFQGNAMGWSRQAPGKERELVAAISIRSGRTYYADSVKGRFTISRDNAKNTVYLQMNSLKPEDTAVYYCAAYRGKVRYDYWGQGTQVTVSS | high polyreactivity
QVQLVESGGGLVQAGGSLRLSCAASGSTFPPYAMGRYRQAPGKERELVAAIDWSDGTTYYADSVKGRFTISRDYAKNTVYLQMNSLKPEDTAVYYCAGSLSQSEYDYWGQGTQVTVSS | low polyreactivity
QVQLVESGGGLVQAGGSLRLSCAASGSIFQYNAMGWSRQAPGKERELVAAIRTNYADSVKGRFTISRDNAKNTVYLQMNSLKPEDTAVYYCAAESSQTPTSAFDYWGQGTQVTVSS | low polyreactivity
QVQVVESGGGLVQAGGSLRLSCAASGGTFGRYTMGWYRQAPGKERELVAAITYGGGSTYYADSVKGRFTISRDNAKNTVYLQMNSLKPEETAVYYCARRGILRGSRYDYWGQGTQVTVSS | high polyreactivity
QVQLVESGGGLVQAGGSLRLSCAASGSIFGQYAMGWYRQAPGKERELVAAISTRGGSTRYADSVKGRFTISRDNAKNTVYLQMNSLKPEDTAVYYCAARPGYLYDYWGQGTQVTVSS | high polyreactivity
QVQLVESGGGLVQAGGSLRLSCDASGSIFPYNAMGWYRQAPGKEREFVAAINLSGRSTNYADSVKGRFTISRDNAKNTVYLQMNSLKPEDTAVYYCNAPFVYFWPLNFDYWGQGTQVTVSS | low polyreactivity
QDQLVESGGGLVQEGGSLRLICGASGFIFPTNAMGWYRPAPGKERELVAAISRSGGTTNYADSVKGRFTISRDNAKNTVYLQRNSLKPEDTAVYYCNRGWATWHGPDDYWGQGTQVTVSS | high polyreactivity
QVQLVESGGGLVQAGGSLRLSCAASGSIFDTYAMGWYRQAPGKERELVAAIRQSGARTYYADSVKGRFTISRDKAKNTVYLQMNSLKPEDTAVYYCAVSYHHYQTWYNYWGQGTQVTVSS | high polyreactivity
QVQLVESGGGLVQAGGSLRLSWAASGFTFYRYAMGWYRQAPGKERELVAAITRSGSRTYYADSVKGRFTISRDNAKNTVYVQMNSLKPEDTAVYYCNTDGGDHPTARYGYWGQGTQVTVSS | high polyreactivity
QVQLVESGGGLVQAGGSLRLSCAASGRIFGYYAMGWSRQAPGKERELVASIRRGTRTNYADSVKGRFTISRDNAKNTVYLQMNSLKPEDTAVYYCAATRFQFTTTPWYDYWGQGTHVTVSS | high polyreactivity
QVQLVESGGGLVQAGGSLRLSCAASGRTFSENAMGWYRQAPGKERELVAAISGSGGRTYYADSVKGRFTISRDNAKNTVYLQMNRLKPEDTAVYYCAKVTRYGSTYDYWGQGTQVTVSS | high polyreactivity
QVQLIESGGGIVQAGGSLRLSSAASGIIFDWYTMGWYRQATGKERELVAAISWRGGRTYYADSVKGRFTISRDNAKNTVYLQMNSLKAVDTGVYYCAAEAPVQPFYVFNSGIYDLDYWGQGTHVTVSS | low polyreactivity
QVQLVESGGGLVQAGGSLRLSCASSVRTLAYNSRGCYRQATGKERELVASITSGGSTNYADSVKGRFTISRDNAKNTVYLQMNSLKPEDTAVYYCNKDGKYHRVLYDYWGQGTQVTVSS | low polyreactivity
QVQLVESGGGLVQAGGSLRLSCAASVRIFVYYAMGWYRQAPGKERELVASISYSGASTYYADSVKGRFTISRDNAKKTVYLQMNSLKPEDTAVYYCNTDGDDFFHVIYDYWGQGTQVTVSS | low polyreactivity
